The values that follow come from patent publication US20220332804A1 (CSL INNOVATION, published 2022).

Common to all, as to experiment: SPR; KD relative to WT C2;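 also: biacore SPR at 37 °C, anti-C2 mAbs captured on an anti-human IgG chip, alanine or serine C2 surface mutants tested, KD from 1:1 fit compared with wild-type C2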
For orientation: Surface plasmon resonance follows binding to a sensor surface in real time, without labels.

The target of one experiment is T1, human C2 T317A (human, UniProt P06681 21-752).
T1 sequence: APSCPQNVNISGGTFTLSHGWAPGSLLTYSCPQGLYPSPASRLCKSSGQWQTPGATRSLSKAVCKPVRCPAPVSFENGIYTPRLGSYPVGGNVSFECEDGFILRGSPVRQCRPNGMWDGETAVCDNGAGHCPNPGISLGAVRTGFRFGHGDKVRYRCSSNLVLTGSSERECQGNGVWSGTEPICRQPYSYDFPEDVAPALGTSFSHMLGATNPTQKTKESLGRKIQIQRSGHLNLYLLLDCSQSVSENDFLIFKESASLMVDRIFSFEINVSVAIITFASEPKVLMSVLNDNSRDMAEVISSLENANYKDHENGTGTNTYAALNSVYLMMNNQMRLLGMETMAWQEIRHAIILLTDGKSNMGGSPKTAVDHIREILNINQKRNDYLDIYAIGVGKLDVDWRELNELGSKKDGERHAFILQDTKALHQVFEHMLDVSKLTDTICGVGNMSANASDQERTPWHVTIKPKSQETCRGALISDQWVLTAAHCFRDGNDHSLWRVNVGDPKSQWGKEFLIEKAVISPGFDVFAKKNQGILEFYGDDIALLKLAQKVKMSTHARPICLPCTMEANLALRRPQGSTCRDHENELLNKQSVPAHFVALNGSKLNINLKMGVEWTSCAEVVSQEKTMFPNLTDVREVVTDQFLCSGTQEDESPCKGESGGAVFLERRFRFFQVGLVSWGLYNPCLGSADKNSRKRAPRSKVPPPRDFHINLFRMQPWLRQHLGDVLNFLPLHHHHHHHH

For a further experiment, the target named is T2, human C2 Y328A (human, UniProt P06681 21-752).
T2 sequence: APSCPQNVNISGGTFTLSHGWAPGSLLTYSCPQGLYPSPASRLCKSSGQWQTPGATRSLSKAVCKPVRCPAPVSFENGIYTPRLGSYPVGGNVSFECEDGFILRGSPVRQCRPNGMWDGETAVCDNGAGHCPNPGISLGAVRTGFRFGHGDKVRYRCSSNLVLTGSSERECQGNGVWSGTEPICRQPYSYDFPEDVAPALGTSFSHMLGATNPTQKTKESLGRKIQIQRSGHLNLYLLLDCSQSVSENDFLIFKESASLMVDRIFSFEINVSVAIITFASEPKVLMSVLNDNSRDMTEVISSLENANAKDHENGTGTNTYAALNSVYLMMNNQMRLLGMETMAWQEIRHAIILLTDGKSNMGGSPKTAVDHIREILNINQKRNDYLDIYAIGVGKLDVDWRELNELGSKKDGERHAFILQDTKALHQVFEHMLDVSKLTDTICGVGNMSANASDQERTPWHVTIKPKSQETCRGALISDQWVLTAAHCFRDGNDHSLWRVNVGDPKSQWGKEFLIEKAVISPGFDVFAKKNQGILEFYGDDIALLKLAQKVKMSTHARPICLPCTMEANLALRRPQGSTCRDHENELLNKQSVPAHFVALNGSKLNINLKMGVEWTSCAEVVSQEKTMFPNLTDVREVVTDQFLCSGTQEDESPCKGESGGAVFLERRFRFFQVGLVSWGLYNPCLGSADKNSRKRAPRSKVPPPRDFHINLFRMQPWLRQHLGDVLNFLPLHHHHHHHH

The target in a further experiment is T3, human C2 G427A (human, UniProt P06681 21-752).
T3 sequence: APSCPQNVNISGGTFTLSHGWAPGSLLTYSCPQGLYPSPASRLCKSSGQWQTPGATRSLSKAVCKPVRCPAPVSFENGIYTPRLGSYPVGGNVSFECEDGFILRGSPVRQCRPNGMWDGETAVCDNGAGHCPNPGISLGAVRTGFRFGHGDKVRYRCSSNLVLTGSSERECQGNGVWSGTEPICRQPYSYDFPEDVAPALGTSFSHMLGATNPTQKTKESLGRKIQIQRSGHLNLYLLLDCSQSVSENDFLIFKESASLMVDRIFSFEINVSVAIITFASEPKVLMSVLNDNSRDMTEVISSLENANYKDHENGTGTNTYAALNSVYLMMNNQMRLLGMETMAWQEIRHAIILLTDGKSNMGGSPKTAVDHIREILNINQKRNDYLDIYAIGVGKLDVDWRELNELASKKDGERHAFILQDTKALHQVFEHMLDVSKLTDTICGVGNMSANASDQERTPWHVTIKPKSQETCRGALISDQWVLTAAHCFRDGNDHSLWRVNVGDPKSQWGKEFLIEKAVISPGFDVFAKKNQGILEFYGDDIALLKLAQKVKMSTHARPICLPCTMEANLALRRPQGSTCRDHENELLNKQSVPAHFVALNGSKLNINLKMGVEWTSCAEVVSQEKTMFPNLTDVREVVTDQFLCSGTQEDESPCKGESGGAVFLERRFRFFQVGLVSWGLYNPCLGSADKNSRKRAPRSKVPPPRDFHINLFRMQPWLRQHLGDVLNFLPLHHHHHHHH

A further experiment concerns the target T4, human C2 S469A (human, UniProt P06681 21-752).
T4 sequence: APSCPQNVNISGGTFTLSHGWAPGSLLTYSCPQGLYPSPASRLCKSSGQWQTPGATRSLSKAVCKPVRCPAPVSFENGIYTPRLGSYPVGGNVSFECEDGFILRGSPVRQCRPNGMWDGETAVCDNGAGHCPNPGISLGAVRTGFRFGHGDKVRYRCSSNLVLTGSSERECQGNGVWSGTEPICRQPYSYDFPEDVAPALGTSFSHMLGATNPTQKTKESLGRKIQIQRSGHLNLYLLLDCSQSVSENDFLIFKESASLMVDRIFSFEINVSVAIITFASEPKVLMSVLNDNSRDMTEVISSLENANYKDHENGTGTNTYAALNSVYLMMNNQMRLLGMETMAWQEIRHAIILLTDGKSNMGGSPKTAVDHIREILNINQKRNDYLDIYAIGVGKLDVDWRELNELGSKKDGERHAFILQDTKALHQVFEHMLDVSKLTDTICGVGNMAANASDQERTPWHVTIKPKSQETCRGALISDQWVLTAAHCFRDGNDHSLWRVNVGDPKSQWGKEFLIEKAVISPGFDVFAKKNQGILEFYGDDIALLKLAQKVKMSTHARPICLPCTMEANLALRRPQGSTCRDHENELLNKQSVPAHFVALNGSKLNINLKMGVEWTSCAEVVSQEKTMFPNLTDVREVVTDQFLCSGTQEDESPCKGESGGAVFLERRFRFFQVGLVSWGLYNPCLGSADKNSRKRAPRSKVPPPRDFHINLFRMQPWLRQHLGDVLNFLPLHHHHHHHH

B1: RF16-214 (antibody, V domains shown)
VH: EVQLLESGGGLVQPGGSLRLSCAASGFTFSWYQMMWVRQAPGKGLEWVSRIYPSGGGTAYADSVKGRFTISRDNSKNTLYLQMNSLRAEDTAVYYCARDAGYGDNWGQGTLVTVSS
VL: QSALTQPPSVSVSPGQTASITCSGDKLGEKYASWYQQKAGQSPVMVIYQDRKRPSGIPERFSGSNSGNTATLTISGTQAMDEADYYCQAWDTRAVVFGGGTKLTVLG
With B1, the Fold diff with human C2 T317A worked out at 1 fold; with human C2 Y328A, 6 fold; in the experiment with human C2 G427A, 0 fold; in the experiment with human C2 S469A, 3 fold.
